Measured values: patent US20200368364A1, “CYSTEINE PEPTIDE-ENABLED ANTIBODIES” (City of Hope, priority 2016, published 2020)

Experiments:
[1] = target: mutated I83 trastuzumab memAb (I83E); experiment: SPR at 37° C., meditope over immobilised I83E trastuzumab memAb
[2] = target: HER2 on SKBR3 cells (UniProt P04626); experiment: Flow cytometry on SKBR3 cells with 10 nM complex on ice and an AF488 secondary antibody. The other quadrants are printed as Q1 1.19, Q3 0 and Q4 0.18.
[3] = target: HER2-Fc (R&D Systems) (UniProt P04626); experiment: SPR (Biacore T200), HER2-Fc amine-coupled to a CM5 chip, Fab flowed over; ± is the SD of three runs
[4] = target: Her2 (antigen in the SPR of Example 1, FIG. 14) (UniProt P04626); experiment: SPR
[5] = target: original trastuzumab memAb (meditope-enabled trastuzumab, I83 in the light chain); experiment: SPR at 37° C., meditope over immobilised original trastuzumab memAb

| Kd [1] [nM] | Kd [3] [nM] | koff [3] [s⁻¹] | kon [3] [M⁻¹ s⁻¹] | Substance | further results |
| --- | --- | --- | --- | --- | --- |
| 0.86 |  |  |  | 5-diphenylalanine meditope (FIG. 3) (peptide) |  |
|  |  |  |  | A175C meFab conjugated to the AlexaFluor647 thiopyridine-meditope | Q2 (share of events positive for both the AF647 meditope and the AF488 secondary antibody) [2]: 98.6 |
|  | 0.863 | 0.000674 | 1.04e+06 | Trastuzumab I83E Fab (meditope-enabled trastuzumab V2 Fab) | Kd [4]: 0.055 nM; koff [4]: 0.00021 s⁻¹; kon [4]: 3.8e+06 M⁻¹ s⁻¹ |
|  | 0.296 | 0.000378 | 1.28e+06 | Trastuzumab I83E, A175C Fab |  |
| 38 |  |  |  | original meditope, Ac-…-Am (peptide) | Kd [5]: 1000 nM |
